Laboratory results: article PMC4450660, “Biochemical and Structural Characterization of Enolase from Chloroflexus aurantiacus: Evidence for a Thermophilic Origin” (Frontiers in Bioengineering and Biotechnology, 2015)

Target: the molecule itself
Test: SEC; native molecular weight of purified EnoCa (~92-96 kDa against a ~46 kDa subunit on SDS gel); gel filtration on Sephacryl S-300 (2.5 x 100 cm), 1 ml/min, is a step of the purification; the data are in Figures S1-S3

B1: enolase-1 from Chloroflexus aurantiacus (enzyme, Chloroflexus aurantiacus strain J.10.fl., UniProt A9WCM4 1-426, looked up)
chain: MSTLIEAIVAREVLDSRGNPTIEVDVRLESGDVGRAIVPSGASTGAHEALELRDGDKSRYNGKGVLKAVQAVNEDIAEALIGFDAADQIALDQELIALDGTPNKSKLGANAILGVSLAAAKAAAAAFGLPLYRYLGGVYAHVLPVPMMNIMNGGQHATNSTDFQEFMIMPVGAESFREGLRWGAEIYHMLKKVIHDRGFSTTVGDEGGFAPSLPTNDAPLQLIMEAIEKAGYRPGEQIVIALDPATTEIFEDGKYHLKREGRSLSSAEMVDYWVDLVNRYPIISLEDGLAEDDWEGWALLRAKLGDRVQLVGDDFLVTNVQRLQRAIEAKAANSILIKLNQIGSLTETLSAIQLAQRSGWTAVVSHRSGESEDVTIADLVVATNAGQIKTGAPARTDRIAKYNQLLRIEEELGSAARYAGRSAFKV
notes: enolase-1 (2-phospho-D-glycerate hydrolyase, EC 4.2.1.11) of Chloroflexus aurantiacus strain J.10.fl., endogenous protein; subunit ~46 kDa by SDS-PAGE; Native protein purified from the organism, no tags; also called EnoCa; EnoCa-1
  stoichiometry N: 2
